According to patent US20260083725A1, “SIGMARI LIGAND FOR THE TREATMENT OF PANCREATIC CANCER” (INSTITUT NATIONAL DE LA SANTÉ ET DE LA RECHERCHE MÉDICALE, priority 2022, published 2026):

System: SK2 channel
Assay: Whole cell patch clamp recording of SK2 current in pancreatic cancer cells
Format: cell-based, human
Details: cells treated without CAF-CM; EGF 25 ng/mL overnight
Protocol: Electrophysiological recordings in HEK293-T, PANC-1 and MiaPaCa-2 cells were performed in the whole cell configuration of the patch clamp technique at room temperature. Cells were bathed in a solution containing: 5 mM KCl, 145 mM NaCl, 1 mM MgCl2, 2 mM CaCl2, and 10 mM Hepes (pH adjusted to 7.4 with HCl, 300 mosm/L). Soft glass patch electrodes (Brand, Wertheim, Germany) were made on a horizontal pipette puller (P-97, Sutter Instrument Co., Novato, CA) to achieve a final resistance ranging from 3 to 5 MΩ. The internal solution was: 145 mM KCl, 1 mM MgCl2, 0.87 mM CaCl2, 1 mM EGTA, 10 mM Hepes, 1 mM ATP (pH adjusted to 7.2 with KOH, 308 mosm/L, pCa 6). Recordings were performed at room temperature in the voltage clamp mode using an PC-controlled EPC 9 patch-clamp amplifier (HEKA, Lambrecht/Pfalz, Germany). Currents were acquired and analyzed with Pulse and Pulsefit software (HEKA). Signal were filtered at 10 kHz and digitalized at 20 kHz. Currents were elicited by voltage ramps protocols (from −120 to +60 mV). Current density was measured at 0 mV. For the electrophysiological study of the SK2 mutations, HEK293-T were transfected with the different constructions and the HA-myr-AKT using calcium phosphate and recorded 24 h after transfection.

B1: EGF: EGFR ligand; growth factor applied to cells at 25 ng/mL (protein, UniProt P01133 23-1207, looked up)
Pro-epidermal growth factor: PQHWSCPEGTLAGNGNSTCVGPAPFLIFSHGNSIFRIDTEGTNYEQLVVDAGVSVIMDFHYNEKRIYWVDLERQLLQRVFLNGSRQERVCNIEKNVSGMAINWINEEVIWSNQQEGIITVTDMKGNNSHILLSALKYPANVAVDPVERFIFWSSEVAGSLYRADLDGVGVKALLETSEKITAVSLDVLDKRLFWIQYNREGSNSLICSCDYDGGSVHISKHPTQHNLFAMSLFGDRIFYSTWKMKTIWIANKHTGKDMVRINLHSSFVPLGELKVVHPLAQPKAEDDTWEPEQKLCKLRKGNCSSTVCGQDLQSHLCMCAEGYALSRDRKYCEDVNECAFWNHGCTLGCKNTPGSYYCTCPVGFVLLPDGKRCHQLVSCPRNVSECSHDCVLTSEGPLCFCPEGSVLERDGKTCSGCSSPDNGGCSQLCVPLSPVSWECDCFPGYDLQLDEKSCAASGPQPFLLFANSQDIRHMHFDGTDYGTLLSQQMGMVYALDHDPVENKIYFAHTALKWIERANMDGSQRERLIEEGVDVPEGLAVDWIGRRFYWTDRGKSLIGRSDLNGKRSKIITKENISQPRGIAVHPMAKRLFWTDTGINPRIESSSLQGLGRLVIASSDLIWPSGITIDFLTDKLYWCDAKQSVIEMANLDGSKRRRLTQNDVGHPFAVAVFEDYVWFSDWAMPSVMRVNKRTGKDRVRLQGSMLKPSSLVVVHPLAKPGADPCLYQNGGCEHICKKRLGTAWCSCREGFMKASDGKTCLALDGHQLLAGGEVDLKNQVTPLDILSKTRVSEDNITESQHMLVAEIMVSDQDDCAPVGCSMYARCISEGEDATCQCLKGFAGDGKLCSDIDECEMGVPVCPPASSKCINTEGGYVCRCSEGYQGDGIHCLDIDECQLGEHSCGENASCTNTEGGYTCMCAGRLSEPGLICPDSTPPPHLREDDHHYSVRNSDSECPLSHDGYCLHDGVCMYIEALDKYACNCVVGYIGERCQYRDLKWWELRHAGHGQQQKVIVVAVCVVVLVMLLLLSLWGAHYYRTQKLLSKNPKNPYEESSRDVRSRRPADTEDGMSSCPQPWFVVIKEHQDLKNGGQPVAGEDGQAADGSMQPTSWRQEPQLCGMGTEQGCWIPVSSDKGSCPQVMERSFHMPSYGTQTLEGGVEKPHSLLSANPLWQQRALDPPHQMELTQ
modifications: Pro-epidermal growth factor
notes: EGFR ligand; growth factor applied to cells at 25 ng/mL
  SK2 current: significant increase
